This is an account of results in patent US20040254352A1, “Lipid-polymer-conjugates” (priority 2001, published 2004).

Data set [1] is described as follows: Particle size and polydispersity of liposomes by (dynamic) light scattering. The following applies: DPPC/cholesterol/conjugate liposomes of Table 1 (Example 21); for Average particle size: dynamic light scattering. The format is physicochemical. Here is the method:
The lipid loss during preparation of the liposomes was 25%, determined by comparing the final radioactivity of the preparation with the activity before the extrusion procedure. The suspension of liposomes was stored in a nitrogen atmosphere at 4° C. Liposomes were prepared using the film method, as described in example 20. Instead of egg phosphatidylcholine dipalmitoyl phosphatidylcholine was used. 5 mM HEPES buffer was added to the dry lipid film and shaken during 5 minutes in the presence of glass beads in order to enable complete hydration of the lipid film. The liposomes were sized by extrusion 12 times through 2 stacked PC membranes having pore sizes of 100 and 200 nm. […] See table 1 for the properties of the liposomal preparations.

The nature of data set [2]: Comparative kinetics of 3H-labelled liposomes containing polymer-lipid-conjugates after a single intravenous injection to the rat (blood circulation time). Particulars: for Increase of blood circulation time: rat, single i.v. injection; for Blood circulation time of the liposomes compared with PEG-grafted liposomes: intravenous administration to rats.
Protocol: Single-dose intravenous injection of liposomal preparations, each containing ^3H-labelled cholesteryloleylether (Amersham) having 40-50 kBq of radioactivity, (compositions per 50 μmol lipid are shown in Table 1) was given into the tail-vein. Total Lipid administered was 5 μmol, except in the cases indicated.
Blood samples were collected from the tail vein of each rat at the following time points post-dose: 5 minutes and 4, 24 and 48 hours. The amount of sample collected was approx. 300 μl per sampling event.
Sampled blood was transferred into heparinised tubes and stored at −20° C.
A single aliquot of 100 μl was solubilised according to the following method:
Radioactivity was measured by LSC.
All radioactive measurements were performed using a Packard scintillation counter (1900TR). Counting time was to a statistical precision of ±0.2% or a maximum of 5 minutes, whichever comes first. The Packard 1900TR was programmed to automatically subtract background and convert counts per minute (CPM) to disintegrations per minute (DPM).
The increase of blood circulation time was assessed, wherein:
Moderate means effect on circulation time in between those shown by PEG-DSPE-containing liposomes and bare liposomes without polymer coating.
Slightly means effect on circulation time under the current conditions almost similar to that shown by bare liposomes.
A short description of data set [3]: Particle size and polydispersity of liposomes by (dynamic) light scattering. The format is physicochemical.
The nature of data set [4]: Storage stability of prednisolone phosphate liposomes at 4° C. (percentage encapsulated prednisolone phosphate versus time). Particulars: compared with poly(2-hydroxyethyl)-L-glutamine-diaminobutane DODASuc-conjugate-containing liposome.
The mark [5] stands for this setting: 11.2 mg conjugate per 50 µmol lipid.
[6] abbreviates: 13.8 mg conjugate per 50 µmol lipid.
Setting [7] is: Total Lipid administered 5 μmol.
Setting [8] is: Total Lipid administered 0.005 μmol.
Where [9] appears, read: Total Lipid administered 0.05 μmol.
Setting [10] is: Total Lipid administered 0.5 μmol.
Where [11] appears, read: prednisolone phosphate liposomes of Example 23, light scattering.

Several values for one entry are separate records, joined by “and”; a condition that tells them apart may be missing. Identical values can stand only once.

For the molecule “Poly-[(2-hydroxypropyl)-L-glutamine]diaminobutane DODASuc [Ex. 5.2]”, in data set [1] (setting [5]), the Average particle size turned out to be 163.9 ± 3.0 nm and the Polydispersity index amounted to 0.068. In addition, in data set [1] (setting [6]), the Average particle size was determined as 153.0 ± 0.9 nm and the Polydispersity index was 0.090.
Consider Poly(DL-glutamine DODASuc [Ex. 16], for which, in data set [2] (setting [7]), the “Increase of blood circulation time” value is reported as “Moderate”.
Regarding “PEG-distearoylphosphatidylethanol-amine [PEG-DSPE, reference compound]”, the “Increase of blood circulation time” value in data set [2] (setting [8]) is “<Slightly”; in data set [2] (setting [9]), “Good”; in data set [2] (setting [10]), “Good”; in data set [2] (setting [7]), “Good”. The Mean particle size in data set [3] (setting [11]) is ~90 nm. In addition, in data set [1], the Average particle size was 156.3 nm.
In the case of “Poly-[N-(2-hydroxyethyl)-L-glutamine] Having a Distearylamine End Group Introduced Via N-Boc-1,4-diaminobutane as Initiator [Ex. 3]”, in data set [1], the Polydispersity index worked out at 0.056 and the Average particle size was 153 ± 0.5 nm.
As for “Poly(D,L-methionine sulfoxide) DODASuc [Ex. 15]”, in data set [2], the “Blood circulation time of the liposomes compared with PEG-grafted liposomes” value was “Results similar to those obtained with the corresponding PEG-grafted liposomes”. Further, the “Increase of blood circulation time” value in data set [2] (setting [7]) is on record as “Good”. In data set [1], this molecule gave a Polydispersity index of 0.062 and an Average particle size of 159.9 ± 2.3 nm.
Regarding Cholesteryl-PHEG [Ex. 6], the “Increase of blood circulation time” value in data set [2] (setting [7]) is given as “Slightly”. In data set [1], this molecule registered a Polydispersity index of 0.116 and an Average particle size of 138.7 ± 1.8 nm.
With “Poly(N-(2-hydroxyethyl)-L-glutamine) Having a Heptadecyloctadecylamine End Group [Ex. 2]”, in data set [1], the Polydispersity index worked out at 0.205 and the Average particle size came out at 143 ± 2 nm.
As to “Poly(2-hydroxyethyl)-L-asparagine DODASuc [Ex. 11]”, the “Stability of liposomal preparation with encapsulated prednisolone phosphate” value in data set [4] is “slightly better result”. Further, the “Blood circulation time of the liposomes compared with PEG-grafted liposomes” value in data set [2] is listed as “Results similar to those obtained with the corresponding PEG-grafted liposomes”. The “Increase of blood circulation time” value is “Slightly” in data set [2] (setting [8]); “Good” in data set [2] (setting [9]); “Good” in data set [2] (setting [10]); “Good and Good §” in data set [2] (setting [7]).
Turning to PHEG-diaminobutane DODASuc [Ex. 5.1], the “Blood circulation time of the liposomes compared with PEG-grafted liposomes” value in data set [2] was “Results similar to those obtained with the corresponding PEG-grafted liposomes”. Also, the “Increase of blood circulation time” value in data set [2] (setting [7]) is “Good and Good §”. For the same molecule, in data set [1], the Polydispersity index was 0.090 and 0.073; the Average particle size is 140.3 ± 2.2 nm and 159.0 ± 3.8 nm.
In data set [1], “Poly(2-hydroxyethyl)-DL-glutamine diaminobutane DODASuc [Ex. 7]” returned a Polydispersity index of 0.073 and an Average particle size of 159.0 ± 3.8 nm.
For the molecule “poly(HEG-co-dimethylaminoethylglutamine)diaminobutane DODASuc; 5% dimethylaminoethyl sidegroups [Ex. 9]”, the “Increase of blood circulation time” value in data set [2] (setting [7]) was “Moderate”. In data set [1], this molecule had a Polydispersity index of 0.039 and an Average particle size of 170.3 ± 2.5 nm.
The molecule “poly-[N-(2-hydroxyethyl)-L-glutamine]-stearylamine [Ex. 20]” displayed a Polydispersity index in data set [3] (EPC/cholesterol/PHEG-stearylamine liposomes of Example 20) of 0.099±0.02. The molecule also returned a Mean particle size in data set [3] (EPC/cholesterol/PHEG-stearylamine liposomes of Example 20, light scattering (Malvern Zeta-sizer)) of 93.6±0.9 nm. In data set [1], this molecule returned a Polydispersity index of 0.167 and an Average particle size of 171.6 ± 2.5 nm.
In the case of Poly-L-threonine DODASuc [compound 14], the Mean particle size entry in data set [3] (setting [11]) is reported as “about 85 nm”.
Regarding `CCCCCCCCCCCCCCCCCCN(CCCCCCCCCCCCCCCCCC)C(=O)CCC(=O)NCCC(=O)NCCC(=O)NCCC(=O)N[C@@H](CCC(=O)NCCO)C(=O)NCCC(=O)NCCC(=O)NCCC(=O)NCCC(=O)N[C@@H](CCC(=O)NCCO)C(=O)NCCC(=O)NCCC(=O)NCCC(=O)N[C@@H](CCC(=O)NCCO)C(=O)NCCC(=O)NCCC(N)=O` [Ex. 19, DODASuc-(β-Ala)3-HEG-(β-Ala)4-HEG-(β-Ala)3-HEG-(β-Ala)2-NH2], the “Increase of blood circulation time” value in data set [2] (setting [7]) is reported as “Moderate”.
In data set [1], “Poly-[(4-hydroxybutyl)-L-glutamine]diaminobutane DODASuc [Ex. 5.4]” returned a Polydispersity index of 0.071 and an Average particle size of 148.2 ± 1.7 nm.
For Poly(DL-asparagine) DODASuc [Ex. 17], the “Increase of blood circulation time” value in data set [2] (setting [7]) is given as “Moderate”.
The same measure, in the same setting: next, Poly(DL-serine) DODASuc [Ex. 13]: “Slightly”.
